Experiment: yeast display, Sf9 membrane polyspecificity reagent, FACS + sequencing; frameworks hold sequencing errors
Procedure, shortened: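 Nanobodies from a synthetic yeast display library (Saccharomyces cerevisiae BJ5465), induced 36–48 hours with galactose, were stained 1 hour at 4 °C with 10% biotinylated, detergent-solubilized Sf9 membrane reagent, enriched on streptavidin microbeads, then FACS-sorted. Anti-HA (expression) and streptavidin (reagent binding) fluorescence set low and high (top ~1%) gates. Polyreactivity labels come from the gate of origin. Genes were colony-PCR amplified, MiSeq 2 × 250 sequenced and filtered by CDR length.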

Sequence	polyreactivity (PSR sort gate)
QVQLVESGGGLVQAGGSLRLSCAASGFTFSYYAMGWYRQAPGKERELVAAITSSGARTYYADSVKGRFTISRDNAKNTVYFQMNSLKPEDTAVYYCAAEVFRTRTWEYYYWGQGTQVTVSS	high polyreactivity
QVQLVESGGGLVQAGGSLRLSCAASGSTFVTYAKGWYRQAPGKERELVAAITSGGSTNYADSVKGRFTISRDNAKNTVYLQMNCLKPEDTEVYYCAARYYGAYGKQPRARYGYWGQGTQVTVSS	high polyreactivity
QVQLVESGGGLVQAGGSLRLSCAASGSIFRGYAMGWYRQAPGKERELVAAITSSGARTFYADSVKGRFTISRDNAKNTVYFLMKSLRPEDTAVYYCDAVSANQDFDSWGQGTQVSVSS	high polyreactivity
QVQLVESGGGLVQAGGSLRLSCAASGRTFNKYAMGWYRQAPGKERELVAAITGSGGSTYYADSVKGRFTISRDNAKNTVYLEMNSLKPEDTAVYYCAAYAYGVWHSQDGGNYWGQGTQVTVSS	low polyreactivity
QVQLVESGGGLVQAGGSLRLSCAASGSTFAGNGMGWYRQAPGKEGELVAGIDVTGGSTYYADSVKGRFTISRDNAKKTVDLQMNSLKPEDTAVYYCYARYVYHSSFAGFDYWGQGTQVTVSS	low polyreactivity
QVQLVESGGGLVQAGGSLRLSCAASGSTFRGYVMGWYRQAPGKERELVAAISRGGGSTYYADSVKGRFTISRDNAKNTVYLQMNSLKPEDTAVYYCATDYSGRQPGKYGYWGQGTQVTVSS	high polyreactivity
QVQVVESGGGLVQAGGSLRLSCAASGFTFSFNAMGSYRQAPWKERELVAAIDRGVSTYYADSVKGRFTISRDNAKNTVYLQMKSLKPEDTAVSYCAVEYWEPYDMDYWGQGTQVTVSS	high polyreactivity
QVQLVESGGGLVQAGGSLRLSCAASGSIFPGYAMGWYRQAPGKERELVATITYSDGSTYYADSVKGRFTISRDNAKNTVYLQMNSLKPEDTAVYYCAVTYWWYYGYDYWGQGTQVTVSS	low polyreactivity
QVQLVESGGGLVQAGGSLRLSCASSVRIFGSNVMGWYRQAPGKERELVASISSGGNTYYADSVKGRFTISRDNAKNTVYLQMNSLKPEDTAVYYCAARRGSAGQWYDYWGQGTQVTVSS	high polyreactivity
QVKLVESGGGLVQAGGSLRLSCAASGIIFYPNALGWYRQAPGKERELVAAITSDGSTYYADSVKGRFTISRDNAKNTVYLQMNSLKPEDTAVYYCGAWDDYGYDYWGQGTQVTVSS	low polyreactivity
QVQLVESGGGLVQAGGSLRLSCAASGRTFRENAMGWYRQAPGKERELVAAIRRSGGRTYYADSVKGRFTISRDNAKNTVYLQMNSLKPEDTAVYYCNAVADGYAFRRPYVTYYYWGQGTQVTVSS	low polyreactivity
QVQLVESGGGLVQAGGSLRLSCAASGSIFGKYAMGWYRQAPAKERELVAAISDSGSITYYADSVKGRFTISRDNAKNTVYLQMNSLKPEDTAVYYCAAEVKYYQSFKYDYWGQGTQVTVSS	high polyreactivity
QVQLVESGGGLVQAGGSLRLSCAASGLIFYYYAKGWYRQAPGKEREFVAAISRSGGITRYADSVKGRFTISRDNAKITVYLQMNSLKPEDTAVYYCAADDYPLTYDDYYWGQGTQVTVSS	high polyreactivity
QVQLVESGGGLVQAGGSLRLICAASGGTFYAYAMGWYRQAPGKERELVAAITRSGGRTYYADSVKGRFTISRDNAKNTVSLQMNSLKPEDTAVYYCAADPHHYSGLDYWGQGTQVTVSS	low polyreactivity
QVQLVETGGGLVQAGGSLRLSCAASGRIFHLYAMGWYRQAPGKERELVAAITFSGGSTYYADSVKGRFTISRDTAKNTVYLQMNSLKPEDTAVYYCAKRSFYWFSSRLPFKYDYWGQGTQVTVSS	low polyreactivity
QVQLVESGGGLVQAGGSLRLSCAACGSTFPGNAKGWYRQAPGKERELVAAISSSGGITYYADSVKGRFTISRDNAKNTVYLQMNSLIPEDTAVYYCSWGHGTQVTVSS	low polyreactivity
QDQLVESGGGLVQAGGSLRLICAASGLIFGFNTMACYRQAPGKESEFVAAINGSDGSTYADSVKGRFTISRDNAKNTVYLQMNSLKPEDTAVYYCAARYGSPKEYTYADMDYWGQGTQVTVSS	low polyreactivity
QVQLEESGGCLVQAGGSLRLSCAASGSIFRHNVMGWYRPAPGKERELVAAISGGGGRTYYADSVKGRFTISRDNAKNTVYLQMNSQKPEDTAVYYCNAVGPGLYQGDSTDSRYNYWGQGTQVTVSS	high polyreactivity
QDQLVESGGGLVQAGGSLRLSCAASGPIFYSNAMGWYRQAPGKERELVAAISSGDGITYYADSVKGRFTISRDNAKNTVYLQMNSLKPEDTAVYYCAADGYYDYPYSGDYWGQGTQVTVSS	high polyreactivity
QVQLVESGGGLVQAGGSLRISCAASGFIFWYYTMGRYIQAPGKERELVAAINSGGSTNYADSVKGRFTISRDNAKNTVYLQMNSLKPEDTAVYYCAALVCYSGELFYYWGQGTQVTVSS	low polyreactivity
QVQRVESGGGLVQAGCRLRLSCAASGTFFMGWYRQAPWKSRELVAGISISDGSTYYADSVKGRLTISRDNAKNTVYLQMKSLKPEDTAVYYFAAVFNPTTGFDYWGQGTQVTVSS	low polyreactivity
QVQLQESGGGLVQADGSLRLSCAASGSIFGYYNMGWYRQAPGKHRELVATINLCRITNYADSVKGRFTISRDNATNTVYVEMHSLNPDDTAVFYCAADEYAQRDLGYWGQGTQVTVSS	low polyreactivity

Sequence	polyreactivity (PSR sort gate)
QVQLVESGGGLVQARGSLRLSCAASGRIFNTYAMGRYIQAPGKERELVAAITSSGGSTYYADSVKGRFTISRDNAKNTVYFQMNSLKPEDTAVYYCNAGSLHRRYYYEGDYWGQGTQVTVSS	high polyreactivity
QVQLVESGGGLVQAGGSLRLSCAASGFIFRYNAMAWYRQAPGKERELVAAIDSGGSTYYADSVKGRFTISRDNAKNTVYLQMNSMKPEDNAVYYCNAVVEASYPCVDYWGQGTQVTVSS	low polyreactivity
QVQLVESGGGLVQAGGSLRLSCAASGFTFASNAMGWYRQAPGKERELVAGISRTGTTTYYADSVKGRFTISRDNAKNTVYLQMNSLKPEDTAVYYCNKAFSHQIYATGMGYWGQGTQVTVSS	high polyreactivity
QVQLVESGGGLVQAGGSLRLSCAASGRTFIRNAMGWYRQAPGKERELVASIRRSGGSTYYADSVKGRFTISRDNAKNTVYLQMNSLKPEDTAVYYSAAVHRFLLGYGYWGQGTQVTVSS	high polyreactivity
QVQLVESGGGLVQAGGSLRLSCAASGSTFYSYVMGWYRQAPGKERELVAVISNDGSTNYADSVKGRFTISRDNAKNTVYLQMNSLKPEDTAVYYCNAEWTRDFYEYDYWGQGTQVTVSS	low polyreactivity
QVQLVESGGGLVQAGGSLRLSCAASGRIFQYYVMGWYRQAPGKERELVAAIRSGGTTNYADSVKGRFTISRDNAKNTVYLQMNSLKPEDTAVYYCNARYRNTFYTRRYAYWGQGTQVTVSS	high polyreactivity
QVHLVESGGGLVQAGGSLRLSCAASGSIFYSNAMGWYRQAPGKERELVAAITRGGSTHYADSVKGRFTISRDNAKNTVYLQMNSLKPEDTAVYYCNKDLNFAKYISSILYDYWGQGTQVSVSS	low polyreactivity
QVQLVESGGGLVQAGGSLRLSCAASGLTLSGNAMGWYRQAPGKERELVAAITGRGGSTTYADSVKGRFTISRDNAKNTVYLLMNSLKPEDTAVYYCAADGRWYWDYEYWGQGTQVTVSS	low polyreactivity
QVQLVESGGGLVQAGGSLRLSCAASGSIFHWYAMGWYRQAPGKERELVAAISYSGASTYYADSVKGRFTISRDNAKITVYLQMNSLKPDDTAVYYCAAKVTGKGYYWGQGTQVTVSS	high polyreactivity
QVKLVESGGGLDQAGGSLRLSCAASGSTILQTAMGGYRQAPGKARELVASISRGGSTNYADSVKGRFTISRDNAKTSVYLQMNSLKPEDTEVYFCATRSRRSASPVVYHAYYYWGQGTHVTVSS	high polyreactivity
QVQLVESGGGLVQAGGSLRLSCAASGFTFIVNPMGWYRQAPGKERELVAAISWNGGSTYYADSVKGRFTISRDNAKNTVYLQMNSLKPEDTAVYYCAVLYRSEYVWGQGTQVTVSS	low polyreactivity
QVQLVESGGGLVQAGVSLRISCAASGFTFPEYDMGWYRQAPGKERELVATISGNGGRTYYADSVKGRFTISRYNAKNTVYLQMNSLKPEDTAVYYCAALLYIRSVVYDYWGQGTQVTVSS	low polyreactivity
QVQLVESGGGLVQAGGTLRLSCAASGGIFTDYTMGWYRQAPGKERELVAAITWTGGSTYYADSVKGRFTISRDNAKNTVYLQMNSLKPEDTAVYYCAADDYWVNLDYWGQGTQVTVSS	low polyreactivity
QVQLVESGGGLVQAGGSLRLSCAASGSIFYPNAMRWYRQAPGKQRELVAVITGGATTYYADSVKGRFTISRDYAKNTVYLQRNSLNPEDTAVDYCAADSAENVYRGYDWGQGTQVTVSS	low polyreactivity
QVQLVESGGGLVQAGGSLRLSCAASGRTFAGNAMGWYRQAPGKERELVATITSRGTITYYADSVKGRFTISRDNAKNTVYLQMHSLKPEDTAVSYCNVRYYFPRYQQPYQLNEYYYWGQGTQVTVSS	low polyreactivity
QVQLVESGGGIVQAGGSLRLSCAASGLILANNAMGRYRQAPGKETELVATISSSGGRTSYADSVKGRFTISRDNAKNTVYLQMNSLKPEDTAVYYCAKYCGRYPHGRSWYDYWGQGTQVTVSS	high polyreactivity
QVQLVESGGGLVQAGGSLRLSCAASGFTFDPYAMGWYRQAPGKERELVAAISFSGGSTSYADSVKGRFTISRDNAKNTVYLQMNSLKPEDTAVYYCAAYSWLYEGYEYWGLGTQVTVSS	high polyreactivity
QVQLVESGGGLVQAGGSLRLSCAASGIIFEGNVMGWYRQAPGKERELVAAITSDTSTNYADSVKGRFTISRDNAKNTVYLQMNSLKPEDTAVYYCNAVIGTDYYYSGTAEFYYWGQGTQVTVSS	low polyreactivity
QVQLVESGGGLVQAGGSLRLSCAASGYTFTIYAMGWYRKAPGKERELVAAITGRGGRTNYADSVKGRFTISRDNAKNTVYLQMNSLKPEDTAVYYCNAVTKVVYHGPYGYDYWGQGTQVTVSS	high polyreactivity
QVQLVESGGGLVQAGGSLRLSCAASGRIFYYYAMGWYRQAPGKERELVAGIDSGDSTNYADSVKGRFTISRDNAKNTVYLQLNSLKPEDTAVYYCAALHYGGYFSYYPYYYWGQGTQVTVSS	low polyreactivity
QVQLVESGGGLVQAGCSLRLSCAASGLIFAVYTMGWYRQAPGKERELVAAITRRSTRTYYADSVKGRFTNSRDNAKNTVYLQMNSLKPEDTAVYYCAADRGSSGAAFEYWGQGTQVTVSS	low polyreactivity

From the nanobody polyreactivity screen of Harvey et al. (2022)
